Test results taken from IntAct's records for PubMed 19293378.

B1: Apoptosis regulator BHRF1 (Epstein-Barr virus (strain B95-8) (HHV-4)), P03182 (parent)
chain: MAYSTREILLALCIRDSRVHGNGTLHPVLELAARETPLRLSPEDTVVLRYHVLLEEIIERNSETFTETWNRFITHTEHVDLDFNSVFLEIFHRGDPSLGRALAWMAWCMHACRTLCCNQSTPYYVVDLSVRGMLEASEGLDGWIHQQGGWSTLIEDNIPGSRRFSWTLFLAGLTLSLLVICSYLFISRGRH
partner: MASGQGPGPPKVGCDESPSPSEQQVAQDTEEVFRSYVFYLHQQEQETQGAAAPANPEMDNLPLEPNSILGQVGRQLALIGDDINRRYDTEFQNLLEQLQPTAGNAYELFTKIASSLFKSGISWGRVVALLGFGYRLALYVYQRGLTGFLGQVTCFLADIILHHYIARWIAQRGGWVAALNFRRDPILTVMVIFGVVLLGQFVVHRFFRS
B2: Apoptosis regulator BHRF1 (Epstein-Barr virus (strain B95-8) (HHV-4)), P03182 (parent)
chain: B1 chain

Variants of: B1
Conditions: with bak_mouse Bak1, O08734

Row | Variant | effect of a mutation on the interaction
1 | L98A | decreasing interaction strength
2 | L98A;G99A;R100A | disrupting interaction strength
3 | G99A | decreasing interaction strength
4 | R100A | decreasing interaction strength

Variants of: B2
Conditions: with Bcl2l11, O54918
Sequence of Bcl2l11, O54918 (O54918 whole entry): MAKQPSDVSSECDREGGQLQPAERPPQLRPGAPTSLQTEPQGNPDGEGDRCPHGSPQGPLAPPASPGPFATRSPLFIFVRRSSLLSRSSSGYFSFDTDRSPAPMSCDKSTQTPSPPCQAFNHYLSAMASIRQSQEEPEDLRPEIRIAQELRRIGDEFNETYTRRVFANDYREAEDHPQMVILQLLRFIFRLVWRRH

Row | Variant | effect of a mutation on the interaction
5 | G99A | decreasing interaction strength
